This note sets out measurements from the nanobody polyreactivity screen of Harvey et al. (2022).

The nature of this data set: yeast display, Sf9 membrane polyspecificity reagent, FACS + sequencing; frameworks hold sequencing errors. Summed up: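 In a synthetic yeast display library (Saccharomyces cerevisiae BJ5465), nanobody expression was induced with galactose for 36–48 hours. FACS gates were set low and high (top ~1%) using anti-HA fluorescence for expression and streptavidin fluorescence for binding of the Sf9 membrane reagent. Each polyreactivity label is drawn from the gate of origin.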
In the case of “QVQLVESGGGLVQAGGSLRLRCAASGRTFSSNAMGWYRQAPGKERELVASISRRGGSTYYADSVKGRFTISRDNAKNSVYVQMNSLKPEDTAVYDCAARQSGQILGYYSRYDYWGQGTQVTVSS”, the “polyreactivity (PSR sort gate)” value is “high polyreactivity”.

On to “QVQLVESGGGLVQAGGSLRLSCAASGSIFEGNAMGWYRQAPGKERELVAAISRRGGRTYYADSVKGRFTISRDNAKNTVYLQMNSLKPEDTAVYYCNALYFRDGRYQTYSDKFDYWGQGTQVTVSS”, for which the “polyreactivity (PSR sort gate)” value is “high polyreactivity”.

Take “QVQLVESGGGLVQAGGSLRLRCAASGRIFGRNAMGWYRQAPGKERELVATISSGDTTDYADSVKGRFTISRDNAKNTVYLQMNSLKPEDTAVYYITIYNYWGQGTQVTVSS”: the “polyreactivity (PSR sort gate)” value was “low polyreactivity”.

For “QVQLVESGGGLVQAGGSLRLSCAASGSTFVKNTMGWYRQAPGKERELVAAIRSSGGSTYYADSVKGRFTISRDNAKNTVYLQMNSLKPEDTAVYYCNKVLQASRSKYYYWGQGTQVTVSS”, the “polyreactivity (PSR sort gate)” value is “high polyreactivity”.

Regarding “QDPLVESGGGLVQAGGSLRLSCAASGRLFYRNPMGWYRQAPGKERELVAAISSSGGGTYADSVKGRFTISRDNAKNTVYLQMNSLKPEDTAVYYCAAGPFSYSHYGRKFYYWGQGTQVTVSS”, the “polyreactivity (PSR sort gate)” value is “high polyreactivity”.

Take “QVQLVESGGGLVQAGGSLRLSCAASGRIFRYYAMGWYRQAPGQERELVAAISWRGGITNYADSVKGRFTISRDNAKNTVYLQMNSLKPEDTAVYYCNRVQGPDSQAKTSMYYWGQGTQVTVSS”: the “polyreactivity (PSR sort gate)” value is given as “high polyreactivity”.

For “QVQLVESGGGLVQAGGSLRLSCAASGFTFYTYAMGWYRQAPGKERELVAAINQRGGRTYYADSVKGRFTISRDNAKNTVYLQMNSLKPEDTAVYYCAKSPPPKTRYDYWGQGTQVTVSS”, the “polyreactivity (PSR sort gate)” value is on record as “high polyreactivity”.

As to “QVQLVESGGGLVQAGGSLRLSCAASGITFYYYAKGWYRQAPGKERELVSAISFRGGSTYYADSVKGRFTISRDNAKNSVYLQMNSLKPEDTAVYYCAAETSRSWYTWVSYDYWGQGTQVNVSS”, the “polyreactivity (PSR sort gate)” value is on record as “high polyreactivity”.

On to “QVQLVESGGGLVQAGGSLRLSCAASGITFGRYAMGWYREAPGKERELVAAISRRGGSTHYADSVKGRFTISRDNAKNTVYLQMNSLKPEDTAVYYCNASPYRYRPSEYDYWGQGTQVTVSS”, for which the “polyreactivity (PSR sort gate)” value is “high polyreactivity”.

For “QVQLVESGGGLFQAGGSLRISCAASGRIFTKNTMGWYRQPPWKERELFAAIRSRAGSTYYADSVKGRFTISRDNAKNTVYLQMNSLKPEDTAFYYCAVPWFRSVDFDYWGQGTQVTVSS”, the “polyreactivity (PSR sort gate)” value is listed as “low polyreactivity”.

On to “QVQLVESGGGLVQAGGSLRLSCAASGSNKQNAMGWYRQSPGKERELLARISKYGGSTYADSVKGRFTISRDNAKNTVYLQMNSLKPEDTAVYYCNAVKRDRNHHATKCEYAYWGQGTPVTVSS”, for which the “polyreactivity (PSR sort gate)” value is reported as “low polyreactivity”.

Consider “QVQLVETGGGLVQAGGSLRLSCAASGSTVRFNAMGWYRQAPGKERELVAVIRWRGGTTYYADSVKGRFTISRDNAKNTVYLQMNSLKPVDTAVYYCNADYWFSYTWHGSYTVGYWGQGTQVTVSS”, for which the “polyreactivity (PSR sort gate)” value is “high polyreactivity”.

Consider “QVQLQESGGGLVQAGGSLRLSCAASGNIVDADIMGWYRQAPGKERELVASITDGGSTNYADSVKGRFTISRDNAKNTVYLQMNSLKPVDTAVYNCAAIAYPDIPTYFDYDSEYFYWGQGTQVTVSS”, for which the “polyreactivity (PSR sort gate)” value is listed as “low polyreactivity”.

For “QVQLVESGGGLVQAGGSLRLSCAASGSIFGDNAMGWYRQAPGKERELVAAITTGASRTYYADSVKGRFTISRDNAKNTVYLQMNSLKPEDTAVYYCNASDPSWREYDYWGQGTQVIVSS”, the “polyreactivity (PSR sort gate)” value is “low polyreactivity”.

Take “QVQLVESGGGLVQAGGSLSLSCAASGYIFVPYAMGWYRQAPGKERELVAAISWSTGTTYYADSVKGRFTISRDNAKNTVYLQMNSLKPEDTAVYYCAAEGYDWIYLYYGLGYWGQGTQVTVSS”: the “polyreactivity (PSR sort gate)” value is listed as “low polyreactivity”.

With “QVQLVESGGGLVQAGGSLRLSCAASGFTFGYNAMGWYRQAPGKEREMVAAINYGGSTDYADSVKGRFTISRDYAKNTVYLQMNSLKPEDTAVYYCNIADRYAYWVRGRHRYGYWGQGTQVTVSS”, the “polyreactivity (PSR sort gate)” value was “low polyreactivity”.

In the case of “QVQLVESGGGLVQAGGSLRLSCAASGIIFYGYDMGWYRQAPGKERELVAAITWSGGSTYYADSVKGRFTISRDNAKNTVYLQMNSLKPEDTAVYYCNADLDSGYGSYDYWGQGTQVTVSS”, the “polyreactivity (PSR sort gate)” value is listed as “low polyreactivity”.

Turning to “QVQLVESGGGLVQAGGSVRLSCAASGFIFTDNAMGWYRQPPLKERELVAAINLSGTRTYYADSVKGRFTISLDNAKNTVSLQMNSLKPEDTAVYYCNISEDYSYEYWGQGTQVTVSS”, the “polyreactivity (PSR sort gate)” value is given as “low polyreactivity”.

Turning to “QVQLVESGGGLVQAGGSHRLSCAASGRIFAHNAMGWYSQAPGKERELVAAITWSGGSTYYADSVKGRFTISRDNAKNTVYLQMNSLKPEDTAVYYCNTDSHGHLYNYWGQGTQVTVSS”, the “polyreactivity (PSR sort gate)” value is “low polyreactivity”.

Turning to “QVQLVESGGGLVQAGGSLRLSCAASGLIFHYYAMGWYRQAPGKERELVAAISSGGSTNYADSVKGRFTISRDNAKNTVYLQMNSLKPLDTAVYYCAARSGARRGNVYVYYEYYYWGQGTQVTVSS”, the “polyreactivity (PSR sort gate)” value was “low polyreactivity”.

“QVQLVESGGGLVQAGGSLRLSCAASGSTFYSYVMGWYRQAPGKERELVAVITSGGSTTYADSVKGRFTISRDNAKNTVYLQMNSLKPEDTAVYYCAKRNYLSYRYDYWGQGTQVTVSS”: the “polyreactivity (PSR sort gate)” value is reported as “low polyreactivity”.

As to “QVQLVESGGGLVQAGGSLRLSCAASGSISVPNAMGWYRQAPGKERELVAGITSGDSTHYADSVKGRFSISRDNAKNTVYIQMISLKPEDTAVYYCAAKVPEPPSLDESDYWGQGTQVTVSA”, the “polyreactivity (PSR sort gate)” value is “low polyreactivity”.

Take “QVQLVESGGGLVQAGGSLRLSCAASGIIFPWYDMGWYRQAPGKERELVAGITDGGDTTYADSVKWRFTISRDNAKNTVYLQMNSLKPEDTAVYYCAADIGYGYWHFDYWGQGTQVTVSS”: the “polyreactivity (PSR sort gate)” value is recorded as “low polyreactivity”.

With “QVQLVESGGGLVQAGGSLRLSCAASGRTFRVYAMGWYRQAPGKERELVAAISWSGGTTYYADSVKGRFTISRDNAKNTVYLQMNSLKPEDSAVYYCARRSRGSSYNYWGQGTQVTVSS”, the “polyreactivity (PSR sort gate)” value was “high polyreactivity”.

Consider “QVQLVESGGGLVQAGGSLRLRCAASGIIFEYYAMGLYRQAPGKERELVAAITRGGTTYYADSVKGRFTISRDNAKNTVYLQMNSLKPEDTAVYYCNADSVAYGDEYDFWGQGTQVTVSS”, for which the “polyreactivity (PSR sort gate)” value is listed as “low polyreactivity”.

For “QVQLVESGGGLFQAGGSLRLSSAASGSIFINNGMGWYRQAPGKESELVAAIYSGGSTYADSVKGRFTISRDNAKNTVYLQMNSLKPEDTAVYYCAVDVWLRGLYGYEYDYWGQGTQVTVSS”, the “polyreactivity (PSR sort gate)” value is listed as “low polyreactivity”.

As for “QVQLVESGGGLVQAGGSLRLSCAASGSTFWYYAMGWYRQAPGKERELVAAITRDGTTYYADSVKGRFTISRDNAKNTVYLQMNSLKPEDTAVYYCAVDIDNWSEYDYWGQGTQVTVSS”, the “polyreactivity (PSR sort gate)” value is “low polyreactivity”.

On to “QDQLVQSGGGIVQAGGSLRLSCAASGSTFILYAMGWYRQAPGKESELVAAISTSGGSTYYADSVKGRVTISRDNAKNTVYFHMNSLKPDDTAVYYCIAGLSVTHGTSIPFRKYEYWGQGTQVNVSS”, for which the “polyreactivity (PSR sort gate)” value is “low polyreactivity”.

For “QVQLVESGGGLVQAGGSLRLSCAASGITFLANAMGWYRQAPGKERELVATITSRGASTYYADSVKGRFTISRDNAKNTVYLQMNSLKPEDSAVYYCAATVRRRYERYNYWGQGTQVTVSS”, the “polyreactivity (PSR sort gate)” value was “high polyreactivity”.

With “QVQRVESGGGLVQAGRSLRLSCAASGTIFGPYAMGWYRQAPGKERELVAAITIGRDNTYYADSVKGRFTISRDNAKNTVYLQINSLKPEDTAVYYCAAKYYGGKPHYYEYYYWGQGTQVTVSS”, the “polyreactivity (PSR sort gate)” value is reported as “low polyreactivity”.

In the case of “QVQLVESGGGLVQAGGSLSLRFAASGFIFYRYAMGWYRQAPWKERELVAAITRSVTSTYYADSVKGRFTISRDNAKNTVYLQMNSLKPEDTAVYYCILRSRYDYYYWGQGTQVTVSS”, the “polyreactivity (PSR sort gate)” value is on record as “high polyreactivity”.

As to “QVQLVESGGGIVQAGGSLRLSCAASGGIFYGYAMGWYRQAPGKERELVAAISSTGGRTYYADSVKGRFTISRDNAKNTVYLQMNSLKPEDTAVYYCAAEDFTRQFEYWGQGTQVTVSS”, the “polyreactivity (PSR sort gate)” value is on record as “low polyreactivity”.

Turning to “QVQLVESGGGLVQAGGSLRLSCAASGGIFYLYAMGWYRQAPGKERELVAAITWSADSTYYADSVKGRFTISRDNAKYTVYLQMNSLKPEDTAVYYCNADVAWQYWNGWSWDIYDYWGQGTQVTVSS”, the “polyreactivity (PSR sort gate)” value is “low polyreactivity”.

For “QVQLVESGGGLVQAGGSLRLRCAASGSIFARNAMGWYRQAPGKERELVASITWSGASTFYADSVKGRFTISRDNAKYTVYLQMNSLKPDVTAVYYCAATDQKLSLDYSSYEYWGQGSQVTVSS”, the “polyreactivity (PSR sort gate)” value was “low polyreactivity”.

In the case of “QVQLLHSGGGKVQAGGRLRLSCAASGFIFCYYAMGWYRQAPGKERELVATISSGGNTYYADSVKGRFTISRDNAKNTVYLQMNSLKPEDTAVYYCAARWGVRPFYSTQYRYYYWGQGTQVTVSS”, the “polyreactivity (PSR sort gate)” value is recorded as “high polyreactivity”.

In the case of “QVQLVESGVGLVQAGCSHRLSCAASGSTISAYDMGSYRQAPGKERELVAAITWIGGNTYYADSVKGRFTISRDNAKNTVYLQMNSLKPEDTAVYYCAAEEVPYDRDMDYWGQGTQVTVSS”, the “polyreactivity (PSR sort gate)” value is listed as “low polyreactivity”.

For “QVQLVESGGGLVQAGGSLRLSCAASGNIFGVYAMGWYRQAPGKERELVAAIRYSTVSTYYADSVKGRFTISRDNAKNTVYLQMNSLKPEDTAVYYCAAQRRRYLPGHYYYWGQGTQVTVSS”, the “polyreactivity (PSR sort gate)” value is on record as “high polyreactivity”.

For “QVQLVESGGGLVQAGGSLRLSCAASGRTSLNYAMGWYRQAPGKERELVAAITLRGGNTYYADSVKGRFTISRDNAKNTVYLQMNSLKPEDTAVYYCAAYTKEISIYYPYEYWGQGTQVTVSS”, the “polyreactivity (PSR sort gate)” value is given as “high polyreactivity”.

“QVQLVESGGGLVQAGGSLRLSCAASGRIFSRNAMGWYRQAPGKERELVAGISARGGRTYYADSVKGRFTISRDNAKNTVYLQMNSLKPEDTAVYYCNARTGYQDGTYGNDYWGQGTQVTVSS”: the “polyreactivity (PSR sort gate)” value is “high polyreactivity”.

As for “QVHLVESGGGLVQSRGSLRLSCAASGNIFGNNAMGWYRLAPGKERELVAAISSSGTSTYYADSVKGRFTISRDNAKNTVYLQMNSLKPEDTEVYYCNADPLPYDGYYDYDYWGQGTQVTVSS”, the “polyreactivity (PSR sort gate)” value is given as “low polyreactivity”.
